Source: article PMC11290353

Target: RNA Pol II large subunit (CTD) (UniProt P08775)
Test: HA IP; blot Pol II S5P, S2P
Settings: reference: HA-CMTR1 wild type; sites S26,S28,T30,S31,S46,S49,S51,S53,S55,T57,S63,S64,S66,S75,S89

CMTR1 (from UniProt Q8N1G2) HA-CMTR1 15A
binding against the reference: weaker
